From US20070224615A1

Tests used:
[1] = target: CCR5-tTA fusion construct containing the low efficiency cleavage site (UniProt P51681); assay: cell-based or functional assay
[2] = target: EGFR-TEV-NIa-Pro cleavage (Leu)-tTA (human) (UniProt P00533); assay: cell-based or functional assay

Sequence of UniProt P51681 (P51681 whole entry, the tested form may be a part): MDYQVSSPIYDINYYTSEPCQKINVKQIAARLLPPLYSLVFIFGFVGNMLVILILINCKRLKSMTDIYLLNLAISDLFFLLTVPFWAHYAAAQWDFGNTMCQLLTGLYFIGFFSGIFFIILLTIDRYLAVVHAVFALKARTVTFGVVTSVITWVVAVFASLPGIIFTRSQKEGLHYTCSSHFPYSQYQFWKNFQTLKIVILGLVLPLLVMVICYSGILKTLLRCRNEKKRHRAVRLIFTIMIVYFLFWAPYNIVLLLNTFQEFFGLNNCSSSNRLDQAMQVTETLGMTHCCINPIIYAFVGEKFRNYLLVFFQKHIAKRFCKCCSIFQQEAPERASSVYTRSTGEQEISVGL

induction of β-galactosidase reporter gene expression over background at 1 µg/ml RANTES, clone 34 cells with stable ARRB2-TEV-NIa protease [1]	increase of luciferase reporter gene activity at 100 ng/ml ligand, cells co-expressing PLC Gamma1-TEV [2]	Substance
40 fold	–	Regulated on Activation, Normal T-Cell Expressed and Secreted (RANTES) (from UniProt P13501 24-91) (ligand)
–	18.3 fold	human Transforming Growth Factor-Alpha (from UniProt P01135 40-89) (ligand)
